Where two headings read alike, the source gives them in different places.
How the values were obtained:
[1] = target: T1, human sodium-dependent phosphate transporter 2B (NaPi2b) (human, UniProt O95436 1-690); experiment: cell-based or functional assay
T1 sequence: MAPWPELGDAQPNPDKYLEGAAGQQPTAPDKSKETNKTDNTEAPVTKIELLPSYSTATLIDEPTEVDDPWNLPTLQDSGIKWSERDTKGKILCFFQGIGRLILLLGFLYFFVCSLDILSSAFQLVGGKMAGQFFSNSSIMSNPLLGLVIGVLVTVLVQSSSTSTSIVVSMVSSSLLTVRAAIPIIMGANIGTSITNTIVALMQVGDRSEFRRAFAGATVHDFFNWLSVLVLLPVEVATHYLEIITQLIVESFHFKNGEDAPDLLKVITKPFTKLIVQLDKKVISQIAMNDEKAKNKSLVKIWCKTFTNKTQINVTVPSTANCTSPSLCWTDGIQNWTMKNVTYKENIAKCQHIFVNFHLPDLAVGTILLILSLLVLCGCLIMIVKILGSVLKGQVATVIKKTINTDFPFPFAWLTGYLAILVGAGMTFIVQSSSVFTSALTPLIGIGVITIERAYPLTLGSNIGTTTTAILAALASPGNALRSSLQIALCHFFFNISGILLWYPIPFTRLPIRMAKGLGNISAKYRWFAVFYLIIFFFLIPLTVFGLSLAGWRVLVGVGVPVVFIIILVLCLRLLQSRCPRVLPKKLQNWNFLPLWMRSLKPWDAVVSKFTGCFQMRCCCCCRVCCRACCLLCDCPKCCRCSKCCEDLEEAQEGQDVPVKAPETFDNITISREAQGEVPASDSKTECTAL

[2] = target: T1, human sodium-dependent phosphate …; experiment: flow cytometry on HEK293-6e cells transfected with human NaPi2b
Description: (§1) Following transfection, cells were seeded at 50,000 cells/well in conical-bottom 96-well plates and treated with test antibody or antibody-drug conjugate for 24 hours at 4° C. to prevent internalization. […] Following incubation and washing, fluorescence was detected by flow cytometry on a BD LSRFortessa™ Cell Analyzer (BD Biosciences, Franklin Lake, NJ) with 1,000 minimum events collected per well.

[3] = target: T1, human sodium-dependent phosphate …; experiment: as above; remark: listed apart in the source
Description: as §1

cynomolgus monkey NaPi2b [4] = target: T2, cynomolgus monkey NaPi2b (cynomolgus monkey, UniProt O95436 1-690 (human entry)); experiment: flow cytometry on HEK293-6e cells transfected with cynomolgus NaPi2b
T2 construct: Transfected into HEK293-6e cells (clone CL_#13433); also called Cy NaPi2b; Cyno NaPi2b
T2 chain: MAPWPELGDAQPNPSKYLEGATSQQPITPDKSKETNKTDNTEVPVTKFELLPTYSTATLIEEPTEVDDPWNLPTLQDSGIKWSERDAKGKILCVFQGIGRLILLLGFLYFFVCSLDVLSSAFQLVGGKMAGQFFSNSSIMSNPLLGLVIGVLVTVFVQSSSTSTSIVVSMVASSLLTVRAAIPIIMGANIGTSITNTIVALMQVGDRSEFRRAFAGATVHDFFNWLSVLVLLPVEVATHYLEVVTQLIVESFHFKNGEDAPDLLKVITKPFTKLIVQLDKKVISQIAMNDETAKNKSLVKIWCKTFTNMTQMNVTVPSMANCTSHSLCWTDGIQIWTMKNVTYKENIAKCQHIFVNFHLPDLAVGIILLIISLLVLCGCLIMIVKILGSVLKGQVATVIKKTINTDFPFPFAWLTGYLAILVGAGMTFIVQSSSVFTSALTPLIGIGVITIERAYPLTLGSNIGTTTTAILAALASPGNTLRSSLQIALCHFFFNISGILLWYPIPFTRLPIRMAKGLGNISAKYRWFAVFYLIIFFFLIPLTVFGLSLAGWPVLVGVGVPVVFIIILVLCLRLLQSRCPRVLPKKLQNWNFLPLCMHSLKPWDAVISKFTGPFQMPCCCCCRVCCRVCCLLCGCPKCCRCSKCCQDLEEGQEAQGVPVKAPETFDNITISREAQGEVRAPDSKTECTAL
Description: as §1

[5] = target: T1, human sodium-dependent phosphate …; experiment: flow cytometry on IGROV-1 cells, 24 h at 4 C, anti-human IgG Fc AF647
Description: (§2) Following incubation and washing, fluorescence was detected by flow cytometry on a BD LSRFortessa™ Cell Analyzer (BD Biosciences, Franklin Lake, NJ) with 1,000 minimum events collected per well.

[6] = target: T1, human sodium-dependent phosphate …; experiment: flow cytometry on OVCAR-3 cells, 24 h at 4 C, anti-human IgG Fc AF647
Description: as §2

[7] = target: T1, human sodium-dependent phosphate …; experiment: flow cytometry on HEK293-6e cells transfected with human NaPi2b, apparent Kd
Description: as §1

[8] = target: T1, human sodium-dependent phosphate …; experiment: as above; remark: listed apart in the source
Description: as §1

cynomolgus monkey NaPi2b [9] = target: T2, cynomolgus monkey NaPi2b; experiment: flow cytometry on HEK293-6e cells transfected with cynomolgus NaPi2b, apparent Kd
Description: as §1

mouse NaPi2b [10] = target: T3, mouse NaPi2b (mouse, UniProt Q9DBP0 1-697); experiment: flow cytometry on HEK293-6e cells transfected with mouse NaPi2b
T3 construct: Transfected into HEK293-6e cells (clone CL_#13476); also called Ms NaPi2b
T3 sequence: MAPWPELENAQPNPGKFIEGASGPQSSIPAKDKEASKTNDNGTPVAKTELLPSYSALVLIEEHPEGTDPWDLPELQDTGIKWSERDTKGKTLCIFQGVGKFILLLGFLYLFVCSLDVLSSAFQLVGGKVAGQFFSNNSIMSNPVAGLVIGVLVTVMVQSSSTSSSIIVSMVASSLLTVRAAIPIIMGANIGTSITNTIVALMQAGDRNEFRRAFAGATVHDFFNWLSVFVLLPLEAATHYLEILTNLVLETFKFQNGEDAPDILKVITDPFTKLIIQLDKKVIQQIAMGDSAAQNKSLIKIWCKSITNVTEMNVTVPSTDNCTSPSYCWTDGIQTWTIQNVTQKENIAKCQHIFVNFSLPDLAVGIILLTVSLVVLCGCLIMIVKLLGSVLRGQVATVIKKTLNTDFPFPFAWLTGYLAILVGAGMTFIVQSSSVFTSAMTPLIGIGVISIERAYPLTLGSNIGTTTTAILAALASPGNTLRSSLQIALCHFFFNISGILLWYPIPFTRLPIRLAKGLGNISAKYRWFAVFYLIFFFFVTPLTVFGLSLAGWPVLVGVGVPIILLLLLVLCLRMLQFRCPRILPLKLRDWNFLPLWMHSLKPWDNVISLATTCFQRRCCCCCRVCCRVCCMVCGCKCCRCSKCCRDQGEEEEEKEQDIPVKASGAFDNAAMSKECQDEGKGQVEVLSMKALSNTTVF
Description: as §1

mouse NaPi2b [11] = target: T3, mouse NaPi2b; experiment: flow cytometry on HEK293-6e cells transfected with mouse NaPi2b, apparent Kd
Description: as §1

[12] = target: T1, human sodium-dependent phosphate …; experiment: cell-based or functional assay; remark: listed apart in the source
[13] = target: T1, human sodium-dependent phosphate …; experiment: cell-based or functional assay; remark: listed apart in the source
[14] = target: T1, human sodium-dependent phosphate …; experiment: cell-based or functional assay; remark: listed apart in the source

B1: v18993 (lifastuzumab) (antibody, human IgG1, kappa)
heavy 1: GEVQLVESGGGLVQPGGSLRLSCAASGFSFSDFAMSWVRQAPGKGLEWVATIGRVAFHTYYPDSMKGRFTISRDNSKNTLYLQMNSLRAEDTAVYYCARHRGFDVGHFDFWGQGTLVTVSSASTKGPSVFPLAPSSKSTSGGTAALGCLVKDYFPEPVTVSWNSGALTSGVHTFPAVLQSSGLYSLSSVVTVPSSSLGTQTYICNVNHKPSNTKVDKKVEPKSCDKTHTCPPCPAPELLGGPSVFLFPPKPKDTLMISRTPEVTCVVVDVSHEDPEVKFNWYVDGVEVHNAKTKPREEQYNSTYRVVSVLTVLHQDWLNGKEYKCKVSNKALPAPIEKTISKAKGQPREPQVYVYPPSRDELTKNQVSLTCLVKGFYPSDIAVEWESNGQPENNYKTTPPVLDSDGSFALVSKLTVDKSRWQQGNVFSCSVMHEALHNHYTQKSLSLSPG
heavy 2: not shown
light: GDIQMTQSPSSLSASVGDRVTITCRSSETLVHSSGNTYLEWYQQKPGKAPKLLIYRVSNRFSGVPSRFSGSGSGTDFTLTISSLQPEDFATYYCFQGSFNPLTFGQGTKVEIKRTVAAPSVFIFPPSDEQLKSGTASVVCLLNNFYPREAKVQWKVDNALQSGNSQESVTEQDSKDSTYSLSSTLTLSKADYEKHKVYACEVTHQGLSSPVTKSFNRGEC
notes: Two different heavy chains (heterodimeric Fc)
[1]
  Internalized Fluorescence in OVCAR-3, 15 min, 100 nM: 2480
  Internalized Fluorescence in OVCAR-3, 4 hr, 100 nM: 8750
  Internalized Fluorescence in OVCAR-3, 16 hr, 100 nM: 8600
  Internalized Fluorescence in OVCAR-3, 24 hr, 100 nM: 13900
[2]
  Bmax: 678
[3]
  Bmax: 678
Cynomolgus monkey NaPi2b [4]
  Bmax: 424
[5]
  Bmax: 20000
  Kd: 2.69 nM
[6]
  Bmax: 14500
  Kd: 5.79 nM
[7]
  Kd: 5.76 nM
[8]
  Kd: 5.76 nM
Cynomolgus monkey NaPi2b [9]
  Kd: 4.71 nM

B2: humanized anti-NaPi2b antibody variant v38591 (antibody, human IgG1, kappa)
heavy: not shown
light: DVQMTQSPSSLSASVGDRVTITCRASQDVYSYLNWYQQKPGKAVKLLIYYTSRLQSGVPSRFSGSGSGTDYTLTISSLQPEDFATYYCQQYNIFPWTFGQGTKLEIKRTVAAPSVFIFPPSDEQLKSGTASVVCLLNNFYPREAKVQWKVDNALQSGNSQESVTEQDSKDSTYSLSSTLTLSKADYEKHKVYACEVTHQGLSSPVTKSFNRGEC
notes: Human IgG1/kappa, full-size antibody; same as v29456 but the heavy chains include a C-terminal lysine; also called v38591 (H1L2); v38591 wild-type Fc
[1]
  Internalized Fluorescence in OVCAR-3, 15 min, 100 nM: 7620
  Internalized Fluorescence in OVCAR-3, 4 hr, 100 nM: 16600
  Internalized Fluorescence in OVCAR-3, 16 hr, 100 nM: 24300
  Internalized Fluorescence in OVCAR-3, 24 hr, 100 nM: 32400
[2]
  Bmax: 651
Mouse NaPi2b [10]
  Bmax: 385
[3]
  Bmax: 651
Cynomolgus monkey NaPi2b [4]
  Bmax: 429
[5]
  Bmax: 22200
  Kd: 1.67 nM
[6]
  Bmax: 15100
  Kd: 2.8 nM
[7]
  Kd: 1.68 nM
Mouse NaPi2b [11]
  Kd: 0.29 nM
[8]
  Kd: 1.68 nM
Cynomolgus monkey NaPi2b [9]
  Kd: 0.27 nM

B3: v29456-MC-GGFG-AM-Compound 139 DAR 8 (antibody, human IgG1, kappa)
heavy: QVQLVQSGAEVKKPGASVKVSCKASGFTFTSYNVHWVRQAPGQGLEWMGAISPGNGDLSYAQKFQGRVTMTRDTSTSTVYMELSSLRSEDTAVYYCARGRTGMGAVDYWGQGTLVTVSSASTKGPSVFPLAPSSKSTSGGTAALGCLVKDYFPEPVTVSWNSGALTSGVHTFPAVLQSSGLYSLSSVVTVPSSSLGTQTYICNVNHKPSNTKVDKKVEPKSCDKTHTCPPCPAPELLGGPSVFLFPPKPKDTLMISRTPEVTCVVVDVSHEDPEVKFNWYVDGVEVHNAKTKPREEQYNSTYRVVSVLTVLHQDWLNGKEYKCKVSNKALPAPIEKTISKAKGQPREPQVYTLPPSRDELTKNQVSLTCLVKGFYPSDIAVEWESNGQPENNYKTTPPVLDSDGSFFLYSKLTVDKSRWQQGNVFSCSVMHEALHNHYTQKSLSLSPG
light: DVQMTQSPSSLSASVGDRVTITCRASQDVYSYLNWYQQKPGKAVKLLIYYTSRLQSGVPSRFSGSGSGTDYTLTISSLQPEDFATYYCQQYNIFPWTFGQGTKLEIKRTVAAPSVFIFPPSDEQLKSGTASVVCLLNNFYPREAKVQWKVDNALQSGNSQESVTEQDSKDSTYSLSSTLTLSKADYEKHKVYACEVTHQGLSSPVTKSFNRGEC
modifications: drug-linker MC-GGFG-AM-Compound 139 on cysteine thiols after TCEP reduction, positions not given; DAR 8.0 for the whole antibody
[12]
  EC50, in vitro cytotoxicity, 2D monolayer, IGROV-1: 0.39 nM
  EC50, in vitro cytotoxicity, 2D monolayer, TOV-21G: 4.3 nM
[13]
  EC50, in vitro cytotoxicity, IGROV-1 spheroids: 0.31 nM
  EC50, in vitro cytotoxicity, TOV-21G:HDFa (1:1) spheroids: 0.24 nM
[14]
  EC50, in vitro cytotoxicity, H441 spheroids: 1.57 nM
  EC50, in vitro cytotoxicity, IGROV-1 spheroids: 0.55 nM
  EC50, in vitro cytotoxicity, TOV-21G spheroids: 0.54 nM

B4: v18992 (MX35) (antibody, human IgG1, kappa)
heavy 1: GQVQLVQSGAEVVKPGASVKMSCKASGYTFTGYNIHWVKQAPGQGLEWIGAIYPGNGDTSYKQKFRGRATLTADTSTSTVYMELSSLRSEDSAVYYCARGETARATFAYWGQGTLVTVSSASTKGPSVFPLAPSSKSTSGGTAALGCLVKDYFPEPVTVSWNSGALTSGVHTFPAVLQSSGLYSLSSVVTVPSSSLGTQTYICNVNHKPSNTKVDKKVEPKSCDKTHTCPPCPAPELLGGPSVFLFPPKPKDTLMISRTPEVTCVVVDVSHEDPEVKFNWYVDGVEVHNAKTKPREEQYNSTYRVVSVLTVLHQDWLNGKEYKCKVSNKALPAPIEKTISKAKGQPREPQVYVYPPSRDELTKNQVSLTCLVKGFYPSDIAVEWESNGQPENNYKTTPPVLDSDGSFALVSKLTVDKSRWQQGNVFSCSVMHEALHNHYTQKSLSLSPG
heavy 2: not shown
light: GDIQMTQSPSSLSASVGDRVTITCSASQDIGNFLNWYQQKPGKTVKVLIYYTSSLYSGVPSRFSGSGSGTDYTLTISSLQPEDFATYYCQQYSKLPLTFGQGTKLELKRTVAAPSVFIFPPSDEQLKSGTASVVCLLNNFYPREAKVQWKVDNALQSGNSQESVTEQDSKDSTYSLSSTLTLSKADYEKHKVYACEVTHQGLSSPVTKSFNRGEC
notes: as for B1
[1]
  Internalized Fluorescence in OVCAR-3, 15 min, 100 nM: 6650
  Internalized Fluorescence in OVCAR-3, 4 hr, 100 nM: 16100
  Internalized Fluorescence in OVCAR-3, 16 hr, 100 nM: 18600
  Internalized Fluorescence in OVCAR-3, 24 hr, 100 nM: 28600
[2]
  Bmax: 548
Mouse NaPi2b [10]
  Bmax: 379
[3]
  Bmax: 548
Cynomolgus monkey NaPi2b [4]
  Bmax: 378
[5]
  Bmax: 21400
  Kd: 1.49 nM
[6]
  Bmax: 14500
  Kd: 3.03 nM
[7]
  Kd: 1.51 nM
Mouse NaPi2b [11]
  Kd: 0.35 nM
[8]
  Kd: 1.51 nM
Cynomolgus monkey NaPi2b [9]
  Kd: 0.67 nM
